# Results: IntAct's records for PubMed 14625560
# B1: Cell cycle serine/threonine-protein kinase hsk1 (Schizosaccharomyces pombe (strain ATCC 38366 / 972)), P50582 (parent)
# chain: MAEAHITLSPKVTHEQQTDIDSECEITEVDDENVNENKSQEMIQDIPARDREEIENITRTFVELQENYRLIEKIGEGTFSSVYKAEDLHYGRYINDWDIQSEVLKESSFGKEKIPVNEDSRKPKYVAIKKIYATSSPARIYNELEILYLLRGSSVIAPLITALRNEDQVLVVLPYYEHTDFRQYYSTFSYRDMSIYFRCLFQAMQQTQTLGIIHRDIKPSNFLFDVRTKHGVLVDFGLAERYDGRQQSHSCRCTNSNAAELAHDFSIAQETSLGYIKNDTRPSKRANRAGTRGFRAPEVLFKCSSQSPKVDIWSAGVILLSFLTKRFPMFNSKDDVDALMEIACIFGKSEMRQCAALHGCTFETNVSTLTEKRVNFRKLILWASCGSASIYKEKLRHKPSQEERLCLDFLEKCLELDCNKRISAEEALDHDFLYLDNLAYEKKDDDTAFDNSFGETSFEKDEDLTAKHLSHILDFKEQEETDEPTSLSKRKRSIDEILPNDALQDGA
# partner: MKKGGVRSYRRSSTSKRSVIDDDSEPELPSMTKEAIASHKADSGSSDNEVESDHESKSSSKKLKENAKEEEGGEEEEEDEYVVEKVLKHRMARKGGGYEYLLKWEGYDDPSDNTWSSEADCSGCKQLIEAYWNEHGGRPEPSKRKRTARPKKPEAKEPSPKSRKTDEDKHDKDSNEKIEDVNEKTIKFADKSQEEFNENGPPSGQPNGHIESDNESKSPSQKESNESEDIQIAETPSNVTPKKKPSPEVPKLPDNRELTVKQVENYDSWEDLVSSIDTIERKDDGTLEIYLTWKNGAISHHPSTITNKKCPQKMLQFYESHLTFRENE
# Variants of: B1
# Conditions: with swi6_schpo swi6, P40381
row,Variant,effect of a mutation on the interaction
1,S314I,decreasing interaction
